Assay results as given in patent US20190284258.

Tested on: T1, Haemadipsa sylvestris antithrombotic peptide Sylvestin
T1 sequence: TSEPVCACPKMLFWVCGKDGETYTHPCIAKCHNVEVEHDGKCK

| Substance | enzyme kinetics, chromogenic substrate, OD 405 nm | enzyme kinetics, chromogenic substrate, OD 405 nm; sample 10 µM |
| --- | --- | --- |
| FXIIa | it can inhibit FXIIa and kallikrein | – |
| FXa | – | had no inhibitory effect on thrombin, plasminogen FXa or the like |
| kallikrein | it can inhibit FXIIa and kallikrein | – |
| plasminogen | – | had no inhibitory effect on thrombin, plasminogen FXa or the like |
| thrombin | – | had no inhibitory effect on thrombin, plasminogen FXa or the like |
